Laboratory results reported in patent publication US20200239579A1 (Genmab, published 2020).

What was measured:
[1] = target: T1, human PD-L1 (full length, on cells) (human, UniProt Q9NZQ7 19-290); assay: flow cytometry on PC3 cells, PE anti-human IgG secondary, MFI (PE)
T1 construct: The entry holds the signal peptide; also called CD274; B7H1
Protocol: (§1) Cells (3-5×10⁴ cells/well) were incubated in polystyrene 96-well round-bottom plates (Greiner bio-one, cat. no. 650101) with serial dilutions of antibodies (range 0.0001 to 10 μg/mL in 5-fold dilution steps) in 50 μL PBS/0.1% BSA/0.02% azide (staining buffer) at 4° C. for 30 min.
(§2) After washing twice in staining buffer, cells were incubated in 50 μL secondary antibody at 4° C. for 30 min. As a secondary antibody, R-Phycoerythrin (PE)-conjugated goat-anti-human IgG F(ab′)₂ (Cat. no. 109-116-098, Jackson ImmunoResearch Laboratories, Inc., West Grove, Pa.) diluted 1:500 in staining buffer, was used for all experiments. Next, cells were washed twice in staining buffer, re-suspended in 20 μL staining buffer and analyzed on an iQue screener (Intellicyt Corporation, USA). Binding curves were analyzed using non-linear regression (sigmoidal dose-response with variable slope) using GraphPad Prism V75.04 software (GraphPad Software, San Diego, Calif., USA).

[2] = target: T2, cynomolgus monkey PD-L1 (full length, on CHO cells) (cynomolgus monkey (Macaca fascicularis), UniProt G7PSE7 19-290); assay: flow cytometry on CHO cells transfected with cynomolgus PD-L1, PE anti-human IgG secondary, MFI (PE)
T2 construct: whole, on cells; also called PDL1 Mf; cynomolgus PD-L1
T2 sequence (G7PSE7 entry or part of it): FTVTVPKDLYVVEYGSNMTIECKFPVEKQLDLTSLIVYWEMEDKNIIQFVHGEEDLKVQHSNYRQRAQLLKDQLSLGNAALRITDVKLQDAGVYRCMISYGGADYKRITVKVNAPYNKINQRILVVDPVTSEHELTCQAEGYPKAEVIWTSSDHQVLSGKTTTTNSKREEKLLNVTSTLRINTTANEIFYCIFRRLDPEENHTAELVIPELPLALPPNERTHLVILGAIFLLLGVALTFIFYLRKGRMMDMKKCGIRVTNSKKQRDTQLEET
Protocol: as §1, §2
Binding to CHO cells expressing cynomolgus PD-L1 was determined by flow cytometry using a method as described above.

[3] = target: T3, human PD-L2 (full length, on CHO cells) (human, UniProt Q9BQ51 20-273); assay: flow cytometry on CHO cells expressing human PD-L2
T3 construct: whole, on cells; also called CHO-PD-L2 cells
T3 sequence (looked up): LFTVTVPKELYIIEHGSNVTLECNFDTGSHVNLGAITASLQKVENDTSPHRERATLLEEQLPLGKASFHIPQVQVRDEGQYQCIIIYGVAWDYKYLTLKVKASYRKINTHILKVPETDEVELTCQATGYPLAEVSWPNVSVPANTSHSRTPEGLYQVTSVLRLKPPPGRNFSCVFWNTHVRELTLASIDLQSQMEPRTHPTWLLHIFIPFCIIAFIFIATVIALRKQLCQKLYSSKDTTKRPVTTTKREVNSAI
Protocol: as §1, §2
A PE-conjugated PD-L2 specific antibody (Mylteni, clone MIH18; cat. no. 130-098-651) was used as positive control.

[4] = target: T1, human PD-L1 (full length, on cells); assay: flow cytometry on MDA-MB-231 cells, PE anti-human IgG secondary, MFI (PE)
Protocol: as §1, §2

[5] = target: T1, human PD-L1 (full length, on cells); assay: flow cytometry on HELA cells, PE anti-human IgG secondary, MFI (PE)
Protocol: as §1, §2

[6] = target: T1, human PD-L1 (full length, on cells); assay: flow cytometry on MDA-MB-231 cells, PE anti-human IgG secondary, MFI (PE); remark: listed apart in the source
Protocol: as §1, §2

[7] = target: T1, human PD-L1 (full length, on cells); assay: flow cytometry on HEK293 cells expressing wild type or alanine-mutant PD-L1
PDLoneECDHisCtag [8] = target: T4, PDLoneECDHisCtag (human, UniProt Q9NZQ7 19-238); assay: BLI cross-block, second antibody on PDLoneECDHisCtag held by immobilised 516; bold = blocking
T4 construct: Expressed in HEK-293F cells; theoretical molecular weight 29 kDa; also called recombinant human PD-L1 ECD; human PD-L1 (BLI); not shown: C-terminal His-tag; C-tag
T4 sequence (Q9NZQ7 19-238, form in doubt): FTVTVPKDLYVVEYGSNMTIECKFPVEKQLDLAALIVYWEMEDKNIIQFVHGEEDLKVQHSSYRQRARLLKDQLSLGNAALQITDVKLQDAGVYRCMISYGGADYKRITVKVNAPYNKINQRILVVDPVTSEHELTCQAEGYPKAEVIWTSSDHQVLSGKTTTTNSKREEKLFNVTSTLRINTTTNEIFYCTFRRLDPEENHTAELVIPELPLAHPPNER
Protocol: (§3) Antibody cross-block testing was performed using biolayer interferometry (BLI) on an Octet HTX instrument (ForteBio). Antibodies (20 μg/ml in 10 mM sodium acetate buffer pH 6.0 (ForteBio)) were immobilized on Amine-Reactive 2nd Generation (AR2G) biosensors (ForteBio) according to the instructions of the manufacturer. After a baseline (50 s) in Sample Diluent (ForteBio), biosensors containing immobilized antibodies were loaded for 500 s with PDLoneECDHisCtag (100 nM or 2.7 μg/ml), after which the association response of a second antibody (10 μg/ml) was followed for 500 s. Biosensors were regenerated by using 3 times 5 s alternating exposures to 10 mM glycine pH 2.5 and Sample Diluent. The experiment was repeated with a new set of second antibodies starting from the baseline step. Each biosensor was used 6 times. The experiment was performed at 30° C. using a shaker speed of 1000 rpm. Data was analyzed using Data Analysis Software v9.0.0.12 (ForteBio). The Y-axis was aligned to the association step and Savitzky-Golay filtering was applied. The average buffer response was subtracted from the association response of the second antibody in order to correct for the dissociation of PDLoneECDHisCtag from the immobilized antibody. The corrected association responses were plotted in a matrix format.

PDLoneECDHisCtag [9] = target: T4, PDLoneECDHisCtag; assay: BLI cross-block, second antibody on PDLoneECDHisCtag held by immobilised 421-LC91S; bold = blocking
Protocol: as §3

PDLoneECDHisCtag [10] = target: T4, PDLoneECDHisCtag; assay: BLI cross-block, second antibody on PDLoneECDHisCtag held by immobilised 632; plain = non-blocking
Protocol: as §3

PDLoneECDHisCtag [11] = target: T4, PDLoneECDHisCtag; assay: BLI cross-block, second antibody on PDLoneECDHisCtag held by immobilised 547; plain = non-blocking
Protocol: as §3

PDLoneECDHisCtag [12] = target: T4, PDLoneECDHisCtag; assay: BLI cross-block, second antibody on PDLoneECDHisCtag held by immobilised MPDL; bold = blocking
Protocol: as §3

PDLoneECDHisCtag [13] = target: T4, PDLoneECDHisCtag; assay: BLI cross-block, second antibody on PDLoneECDHisCtag held by immobilised 511-LC33S; plain = non-blocking
Protocol: as §3

PDLoneECDHisCtag [14] = target: T4, PDLoneECDHisCtag; assay: BLI cross-block, second antibody on PDLoneECDHisCtag held by immobilised 476-N101Q-LC33S; plain = non-blocking
Protocol: as §3

T1 sequence (Q9NZQ7 19-290 limits assumed): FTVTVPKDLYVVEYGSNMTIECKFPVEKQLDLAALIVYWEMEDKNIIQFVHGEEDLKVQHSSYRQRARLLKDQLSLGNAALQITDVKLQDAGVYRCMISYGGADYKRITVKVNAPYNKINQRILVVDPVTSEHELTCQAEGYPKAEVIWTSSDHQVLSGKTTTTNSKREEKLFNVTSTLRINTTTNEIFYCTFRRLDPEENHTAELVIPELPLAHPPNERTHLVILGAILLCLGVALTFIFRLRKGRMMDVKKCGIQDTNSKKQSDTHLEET

B1: bsIgG1-huCD3-H1L1-FEAL×547-FEAR (bispecific antibody)
heavy 1: not shown
VL: not shown
heavy 2: EVQLLEPGGGLVQPGGSLRLSCEASGSTFSTYAMSWVRQAPGKGLEWVSGFSGSGGFTFYADSVRGRFTISRDSSKNTLFLQMSSLRAEDTAVYYCAIPARGYNYGSFQHWGQGTLVTVSSASTKGPSVFPLAPSSKSTSGGTAALGCLVKDYFPEPVTVSWNSGALTSGVHTFPAVLQSSGLYSLSSVVTVPSSSLGTQTYICNVNHKPSNTKVDKRVEPKSCDKTHTCPPCPAPEFEGGPSVFLFPPKPKDTLMISRTPEVTCVVVAVSHEDPEVKFNWYVDGVEVHNAKTKPREEQYNSTYRVVSVLTVLHQDWLNGKEYKCKVSNKALPAPIEKTISKAKGQPREPQVYTLPPSREEMTKNQVSLTCLVKGFYPSDIAVEWESNGQPENNYKTTPPVLDSDGSFFLYSRLTVDKSRWQQGNVFSCSVMHEALHNHYTQKSLSLSPGK
light: SYVLTQPPSVSVAPGQTARITCGGNNIGSKSVHWYQQKPGQAPVLVVYDDNDRPSGLPERFSGSNSGNTATLTISRVEAGDEADYYCQVWDSSSDHVVFGGGTKLTVLGQPKAAPSVTLFPPSSEELQANKATLVCLISDFYPGAVTVAWKADSSPVKAGVETTTPSKQSNNKYAASSYLSLTPEQWKSHRSYSCQVTHEGSTVEKTVAPTECS
EC50 (read off the curve) [1]: ~0.03 µg/mL
EC50 (read off the curve) [2]: ~0.06 µg/mL
binding result [3]: no binding
EC50 (read off the curve) [4]: ~0.08 µg/mL
EC50 (read off the curve) [5]: ~0.02 µg/mL

B2: bsIgG1-huCD3-H1L1-FEAL×338-FEAR (bispecific antibody)
heavy 1: not shown
VL: not shown
heavy 2: EVQVVESGGGLVQPGGSLRLSCAASGFTFSRFWMSWVRQAPGKGLEWVANIKQDGGEKYYVDSVKGRFTISRDNAKNSLYLQMNSLRGEDTAVYYCARDDNWNGHFDYWGQGTLVTVSSASTKGPSVFPLAPSSKSTSGGTAALGCLVKDYFPEPVTVSWNSGALTSGVHTFPAVLQSSGLYSLSSVVTVPSSSLGTQTYICNVNHKPSNTKVDKRVEPKSCDKTHTCPPCPAPEFEGGPSVFLFPPKPKDTLMISRTPEVTCVVVAVSHEDPEVKFNWYVDGVEVHNAKTKPREEQYNSTYRVVSVLTVLHQDWLNGKEYKCKVSNKALPAPIEKTISKAKGQPREPQVYTLPPSREEMTKNQVSLTCLVKGFYPSDIAVEWESNGQPENNYKTTPPVLDSDGSFFLYSRLTVDKSRWQQGNVFSCSVMHEALHNHYTQKSLSLSPGK
light: DIQMTQSPSTLSASVGDRVTITCRASQSISSWLAWYQQKPGKAPNLLIYKASSLESGVPSRFSGSGSGTEFTLTISSLQPDDFATYYCQQYYGSYITFGQGTRLEIKRTVAAPSVFIFPPSDEQLKSGTASVVCLLNNFYPREAKVQWKVDNALQSGNSQESVTEQDSKDSTYSLSSTLTLSKADYEKHKVYACEVTHQGLSSPVTKSFNRGEC
EC50 (read off the curve) [1]: ~0.03 µg/mL
EC50 (read off the curve) [2]: ~0.09 µg/mL
binding result [3]: no binding
EC50 (read off the curve) [6]: ~0.1 µg/mL
EC50 (read off the curve) [5]: ~0.02 µg/mL

B3: IgG1-625-FEAR-A488 (antibody, V domains shown)
VH: HMQLVESGGGVAQPGRSLRLSCAASGFTFSNYGMHWVRQAPGRGLEWLAVMSYDGETKYYADSVKGRFTISRDNSENTLFLQMNSLRAEDTAVYYCAKDTSNGWNYYFYGMDVWGQGTTVTVSS
VL: SYELTQPPSVSVSPGQTARITCSGDALPKKFASWYQQKSGQAPVLVIYEDSKRPSGIPERVSGSSSGTMATLTISGAQTEDEADYYCYSTDRSGYHWVFGGGTKLTVL
notes: also called control antibody of the alanine scan
binding result [7]: binds

B4: IgG1-516-FEAR (antibody, V domains shown)
VH: QVQLQESGPGLVKPSDTLSLTCAVSDYSISSNDWWGWIRQPPGKGLEWIGYIYYSGTGYYNPSLKSRVTISIDTSKNQFSLKLNSVTAVDTAVYYCARTRVGARRAFDYWGQGTLVTVSS
VL: SYVLTQPPSVSVAPGQTARITCGGNNIGSKSVHWYQQKPGQAPVLVVYDDSDRPSGIPERFSGSNSGNTATLTISRVEAGDEADYYCQVWDSSSDHVVFGGGTKLTVL
association response of the second antibody (PDLoneECDHisCtag [8]): 0 nm
association response of the second antibody (PDLoneECDHisCtag [9]): 0 nm
association response of the second antibody (PDLoneECDHisCtag [10]): 0.6 nm
association response of the second antibody (PDLoneECDHisCtag [11]): 0.7 nm
association response of the second antibody (PDLoneECDHisCtag [12]): 0 nm
association response of the second antibody (PDLoneECDHisCtag [13]): 0.6 nm
association response of the second antibody (PDLoneECDHisCtag [14]): 0.7 nm
